Assay results: publication doi:10.1101/2020.06.18.159806 (bioRxiv, 2020)

Target: the molecule itself
Assay: crystal structure

LSEGLRESLSSYISLAEDP (domain or fragment, UniProt Q8R4L0 237-255, looked up) [C-terminal tail of mouse SLAP2 (residues 237-255)]: binds.
